According to patent US20200397896A1, “Combination Therapies Comprising Daratumumab, Bortezomib, Thalidomide and Dexamethasone and Their Uses” (Janssen Biotech, Inc., priority 2019, published 2020):

Test system: adult patients with relapsed and refractory multiple myeloma
Experiment: DARZALEX monotherapy safety, three open-label clinical trials
[1] = monotherapy 16 mg/kg, N = 156, treatment-emergent laboratory abnormality

Excerpt: The median duration of exposure was 3.3 months (range: 0.03 to 20.04 months).

Substance: DARZALEX: IgG1κ human monoclonal antibody against CD38; HC SEQ ID NO: 9, LC SEQ ID NO: 10
- Decreased appetite, Grade 4 (monotherapy 16 mg/kg, N = 156): 0%
- Diarrhea, Any Grade (monotherapy 16 mg/kg, N = 156): 16%
- Diarrhea, Grade 3 (monotherapy 16 mg/kg, N = 156): 1%
- Diarrhea, Grade 4 (monotherapy 16 mg/kg, N = 156): 0%
- Dyspnea, Any Grade (monotherapy 16 mg/kg, N = 156): 15%
- Dyspnea, Grade 3 (monotherapy 16 mg/kg, N = 156): 1%
- Dyspnea, Grade 4 (monotherapy 16 mg/kg, N = 156): 0%
- Fatigue, Any Grade (monotherapy 16 mg/kg, N = 156): 39%
- Fatigue, Grade 3 (monotherapy 16 mg/kg, N = 156): 2%
- Fatigue, Grade 4 (monotherapy 16 mg/kg, N = 156): 0%
- Headache, Any Grade (monotherapy 16 mg/kg, N = 156): 12%
- Headache, Grade 3 (monotherapy 16 mg/kg, N = 156): 1%
- Headache, Grade 4 (monotherapy 16 mg/kg, N = 156): 0%
- Hypertension, Any Grade (monotherapy 16 mg/kg, N = 156): 10%
- Hypertension, Grade 3 (monotherapy 16 mg/kg, N = 156): 5%
- Hypertension, Grade 4 (monotherapy 16 mg/kg, N = 156): 0%
- Infusion reaction, Any Grade (monotherapy 16 mg/kg, N = 156): 48%
- Infusion reaction, Grade 3 (monotherapy 16 mg/kg, N = 156): 3%
- Infusion reaction, Grade 4 (monotherapy 16 mg/kg, N = 156): 0%
- Musculoskeletal chest pain, Any Grade (monotherapy 16 mg/kg, N = 156): 12%
- Musculoskeletal chest pain, Grade 3 (monotherapy 16 mg/kg, N = 156): 1%
- Musculoskeletal chest pain, Grade 4 (monotherapy 16 mg/kg, N = 156): 0%
- Nasal congestion, Any Grade (monotherapy 16 mg/kg, N = 156): 17%
- Nasal congestion, Grade 3 (monotherapy 16 mg/kg, N = 156): 0%
- Nasal congestion, Grade 4 (monotherapy 16 mg/kg, N = 156): 0%
- Nasopharyngitis, Any Grade (monotherapy 16 mg/kg, N = 156): 15%
- Nasopharyngitis, Grade 3 (monotherapy 16 mg/kg, N = 156): 0%
- Nasopharyngitis, Grade 4 (monotherapy 16 mg/kg, N = 156): 0%
- Nausea, Any Grade (monotherapy 16 mg/kg, N = 156): 27%
- Nausea, Grade 3 (monotherapy 16 mg/kg, N = 156): 0%
- Nausea, Grade 4 (monotherapy 16 mg/kg, N = 156): 0%
- Pain in extremity, Any Grade (monotherapy 16 mg/kg, N = 156): 15%
- Pain in extremity, Grade 3 (monotherapy 16 mg/kg, N = 156): 1%
- Pain in extremity, Grade 4 (monotherapy 16 mg/kg, N = 156): 0%
- Pneumonia, Any Grade (monotherapy 16 mg/kg, N = 156): 11%
- Pneumonia, Grade 3 (monotherapy 16 mg/kg, N = 156): 6%
- Pneumonia, Grade 4 (monotherapy 16 mg/kg, N = 156): 0%
- Pyrexia, Any Grade (monotherapy 16 mg/kg, N = 156): 21%
- Pyrexia, Grade 3 (monotherapy 16 mg/kg, N = 156): 1%
- Pyrexia, Grade 4 (monotherapy 16 mg/kg, N = 156): 0%
- Vomiting, Any Grade (monotherapy 16 mg/kg, N = 156): 14%
- Vomiting, Grade 3 (monotherapy 16 mg/kg, N = 156): 0%
- Vomiting, Grade 4 (monotherapy 16 mg/kg, N = 156): 0%
- Anemia, Any Grade [1]: 45%
- Anemia, Grade 3 [1]: 19%
- Anemia, Grade 4 [1]: 0%
- Lymphopenia, Any Grade [1]: 72%
- Lymphopenia, Grade 3 [1]: 30%
- Lymphopenia, Grade 4 [1]: 10%
- Neutropenia, Any Grade [1]: 60%
- Neutropenia, Grade 3 [1]: 17%
- Neutropenia, Grade 4 [1]: 3%
- Thrombocytopenia, Any Grade [1]: 48%
- Thrombocytopenia, Grade 3 [1]: 10%
- Thrombocytopenia, Grade 4 [1]: 8%
- Serious adverse reactions, patients (monotherapy, 156 patients): 33%
